Source: the supplement of paper PMC7877785
± gives the uncertainty stated by the source.

Assay: self-splicing fitness, log relative to wild type (ln ratio); higher = more splicing; Tetrahymena group I intron in knt gene, E. coli kanamycin selection, DiMSum; sequences stand for … in CUCUCU…GGAGGGAAAAGUUAUCAGGCAUGCACCUGGUAGCUAGUCUUUAAACCAAUAGAUUGCAUCGGUUUAAAAGGCAAGACCGUCAAAUUGCGGGAAAGGGGUCAACAGCCGUUCAGUACCAAGUCUCAGGGGAAACUUUGAGAUGGCCUUGCAAAGGGUAUGGUAAUAAGCUGACGGACAUGGUCCUAACCACGCAGCCAAGUCCUAAGUCAACAGAUCUUCUGUUGAUAUGGAUGCAGUUCACAGACUAAAUGUCGGUCGGGGAAGAUGUAUUCUUCUCAUAAGAUAUAGUCGGACCUCUCCUUAAUGGGAGCUAGCGGAUGAAGUGAUGCAACACUGGAGCCGCUGGGAACUAAUUUGUAUGCGAAAGUAUAUUGAUUAGUUUUGGAGUACUCGUGGUCG
Summary of the method: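 Fitness was computed with DiMSum as the error-weighted combination of replicate fold changes, kanamycin versus none, each normalised to wild type. The library randomised all eight intron nucleotides of the P1ex region, with the intron placed in the knt kanamycin-resistance gene on pET-22b(+) in E. coli BL21(DE3). Six replicate transformations were grown overnight at 37°C or 30°C on LB agar with or without 25 μg/mL kanamycin, plus 100 μg/mL carbenicillin, 50 μM IPTG and 0.2% rhamnose. Pooled colonies were amplicon-sequenced on an Illumina HiSeq 2500.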

## AACAAGCAAUAUUACGCCUG
30 °C
  self-splicing fitness (ln): -0.373 ± 0.094
37 °C
  self-splicing fitness (ln): -0.0232 ± 0.095

## CCUCAGCAAUAUUACGGCCU
30 °C
  self-splicing fitness (ln): -4.16 ± 0.39
37 °C
  self-splicing fitness (ln): -1.59 ± 0.29

## AAUGAGCAAUAUUACGGCCU
30 °C
  self-splicing fitness (ln): -1.17 ± 0.17
37 °C
  self-splicing fitness (ln): -1.47 ± 0.21

## GAACAGCAAUAUUACGAUUU
30 °C
  self-splicing fitness (ln): -0.342 ± 0.05
37 °C
  self-splicing fitness (ln): -0.476 ± 0.064

## CAUCAGCAAUAUUACGUCAU
30 °C
  self-splicing fitness (ln): -3.06 ± 0.1
37 °C
  self-splicing fitness (ln): -1.78 ± 0.12

## AAUCAGCAAUAUUACGUCUA
30 °C
  self-splicing fitness (ln): -0.491 ± 0.069
37 °C
  self-splicing fitness (ln): -0.133 ± 0.076

## CGCCAGCAAUAUUACGCACG
30 °C
  self-splicing fitness (ln): -1.66 ± 0.11
37 °C
  self-splicing fitness (ln): -1.47 ± 0.17

## UCAGAGCAAUAUUACGUACG
30 °C
  self-splicing fitness (ln): -1.96 ± 0.24
37 °C
  self-splicing fitness (ln): -1.96 ± 0.28

## GAAAAGCAAUAUUACGGUUU
30 °C
  self-splicing fitness (ln): -0.79 ± 0.057
37 °C
  self-splicing fitness (ln): -0.332 ± 0.076

## AACCAGCAAUAUUACGAGAU
30 °C
  self-splicing fitness (ln): -1.96 ± 0.078
37 °C
  self-splicing fitness (ln): -0.239 ± 0.083

## GGUCAGCAAUAUUACGAAGC
30 °C
  self-splicing fitness (ln): -0.892 ± 0.11
37 °C
  self-splicing fitness (ln): -0.0665 ± 0.13

## GCUUAGCAAUAUUACGGAAC
30 °C
  self-splicing fitness (ln): -0.644 ± 0.15
37 °C
  self-splicing fitness (ln): -0.955 ± 0.14

## CCUGAGCAAUAUUACGUCGC
37 °C
  self-splicing fitness (ln): -2.54 ± 0.39

## GUGAAGCAAUAUUACGCGUA
30 °C
  self-splicing fitness (ln): -0.298 ± 0.14
37 °C
  self-splicing fitness (ln): 0.0699 ± 0.14

## AGGGAGCAAUAUUACGCCCA
37 °C
  self-splicing fitness (ln): -0.897 ± 0.34

## GGAUAGCAAUAUUACGUAGG
30 °C
  self-splicing fitness (ln): -2.82 ± 0.19
37 °C
  self-splicing fitness (ln): -1.52 ± 0.18

## GUUUAGCAAUAUUACGACCC
30 °C
  self-splicing fitness (ln): -0.68 ± 0.19
37 °C
  self-splicing fitness (ln): -0.133 ± 0.24

## GAAUAGCAAUAUUACGCUAG
30 °C
  self-splicing fitness (ln): -2.22 ± 0.16
37 °C
  self-splicing fitness (ln): -0.535 ± 0.14

## CUGCAGCAAUAUUACGCGUU
30 °C
  self-splicing fitness (ln): -3.32 ± 0.12
37 °C
  self-splicing fitness (ln): -2.1 ± 0.16

## CUAAAGCAAUAUUACGACCA
30 °C
  self-splicing fitness (ln): -2.78 ± 0.23
37 °C
  self-splicing fitness (ln): 0.487 ± 0.23

## CAGAAGCAAUAUUACGAAGC
30 °C
  self-splicing fitness (ln): -2.87 ± 0.31

## UCAAAGCAAUAUUACGCAUA
30 °C
  self-splicing fitness (ln): -2.68 ± 0.17
37 °C
  self-splicing fitness (ln): -1.62 ± 0.16

## GAUUAGCAAUAUUACGGAUA
30 °C
  self-splicing fitness (ln): -1.36 ± 0.17
37 °C
  self-splicing fitness (ln): 0.0656 ± 0.2

## UGACAGCAAUAUUACGUGUU
30 °C
  self-splicing fitness (ln): -4.32 ± 0.19
37 °C
  self-splicing fitness (ln): -2.22 ± 0.19

## AAAGAGCAAUAUUACGAAGC
30 °C
  self-splicing fitness (ln): -1.67 ± 0.21
37 °C
  self-splicing fitness (ln): -2.04 ± 0.47

## CAGAAGCAAUAUUACGAGGC
37 °C
  self-splicing fitness (ln): -2.83 ± 0.4

## CUUGAGCAAUAUUACGAGCC
30 °C
  self-splicing fitness (ln): -1.39 ± 0.33

## CUAGAGCAAUAUUACGGGAC
30 °C
  self-splicing fitness (ln): -2.5 ± 0.16
37 °C
  self-splicing fitness (ln): -1.05 ± 0.18

## AGAAAGCAAUAUUACGAGGA
30 °C
  self-splicing fitness (ln): -3.15 ± 0.15
37 °C
  self-splicing fitness (ln): -2.71 ± 0.16

## CGGGAGCAAUAUUACGAAGG
30 °C
  self-splicing fitness (ln): -1.9 ± 0.39
37 °C
  self-splicing fitness (ln): -1.74 ± 0.41

## GCCGAGCAAUAUUACGGCUU
37 °C
  self-splicing fitness (ln): -2.08 ± 0.41

## ACUUAGCAAUAUUACGACGG
30 °C
  self-splicing fitness (ln): -0.755 ± 0.081
37 °C
  self-splicing fitness (ln): -0.0301 ± 0.11
